One molecule from US20190336496A1, “SELECTIVE BCL-2 INHIBITORS IN COMBINATION WITH AN ANTI-PD-1 OR AN ANTI-PD-L1 ANTIBODY FOR THE TREATMENT OF CANCERS” (AbbVie Inc., priority 2018, published 2019) can be followed below.

The subject of the test is CT26 tumors. The test is described as follows: CT26 mouse colon carcinoma syngeneic model. Type of test: in vivo. The conditions noted are these: CT26; groups of 10 mice; CR = tumor volume ≤25 mm^3 over at least 3 successive measurements.

“And” between values parts separate entries of the source, which are not always exact repeats. Equal entries are not always repeated.

Description: BALB/c, C57BL/6, CB6F1 (C57BL/6 bred with BALB/c) and SCID mice were obtained from Charles River (Wilmington, Mass.).
EMT6, mouse mammary carcinoma and CT26, mouse colon carcinoma, cell lines were obtained from ATCC (Manassas, Va.).
Compound (I),venetoclax, was formulated in 10% ethanol+30% PEG 400+60% Phosal® 50PG. Venetoclax was administered orally once a day for 14 days at 50 mg/kg/day.
1×10^5 CT26, EMT6 or MC38 cells were subcutaneously injected with Matrigel into the flanks of BALB/c, CB6F1 or C57BL/6 mice, respectively. Seven days later, mice were randomized to treatment groups of vehicle, venetoclax, anti-PD-1/PD-L1 or the combination of venetoclax and anti-PD-1/PD-L1. Tumor volume was determined via measurements of the length (L) and width (W) of the tumor with electronic calipers and the volume was calculated according to the following equation: V=L×W2/2 using Study Director Version 2.1.11 (Studylog Systems Inc., South San Francisco). Complete response (CR) was defined as reduction in tumor volume to ≤25 mm^3 over at least 3 successive measurements.

B1: anti mu PD1 (17D2 murinized, VH2xVL1x)[mu IgG2a/k] DANA: Mouse anti-PD-1 antibody, heavy chain SEQ ID NO: 3, light chain SEQ ID NO: 4 (antibody)
heavy: QVTLKESGPGILQSSQTLSLTCTFSGFSLSTYGMGVGWIRQPSGKGLEWLTNIWWDDDKYYNSSLKNRLTVSKDTANNQVFLKFTSVDIADTATYYCGRMEWGGSFDYWGQGIMVTVSSAKTTAPSVYPLAPVCGDTTGSSVTLGCLVKGYFPEPVTLTWNSGSLSSGVHTFPAVLQSDLYTLSSSVTVTSSTWPSQSITCNVAHPASSTKVDKKIEPRGPTIKPCPPCKCPAPNLLGGPSVFIFPPKIKDVLMISLSPIVTCVVVAVSEDDPDVQISWFVNNVEVHTAQTQTHREDYASTLRVVSALPIQHQDWMSGKEFKCKVNNKDLPAPIERTISKPKGSVRAPQVYVLPPPEEEMTKKQVTLTCMVTDFMPEDIYVEWTNNGKTELNYKNTEPVLDSDGSYFMYSKLRVEKKNWVERNSYSCSVVHEGLHNHHTTKSFSRTPGK
light: DIVMTQTPVSLSVSLGGQVSISCRSSQSLEHRNGITFLSWYLQKPGQSPQLLIYKVSNRFSGISDRFSGRGSGTDFVLQINRVEPDDLGVYYCGQGTHYPLTFGSGTKLEIKRADAAPTVSIFPPSSEQLTSGGASVVCFLNNFYPKDINVKWKIDGSERQNGVLNSWTDQDSKDSTYSMSSTLTLTKDEYERHNSYTCEATHKTSTSPIVKSFNRNEC
In the case of B1, the “complete responses (CR)” value was “did not lead to any complete responses and 0/10”.
